Assay results: patent US20200299373A1 (NEURACLE SCIENCE, published 2020)
Where no end group is shown, it is not given here.

What was measured:
[1] = biological target: T1, FAM19A5 epitope fragment F2 conjugated to BSA (human, conjugated to BSA); assay: ELISA on peptide-BSA coated on the plate
T1 peptide: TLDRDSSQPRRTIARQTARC
Method: (§1) Overlapping peptide fragments (F1-F6, See FIG. 1) of the human FAM19A5 protein were synthesized and conjugated to BSA. Binding of the different anti-FAM19A5 antibodies to the BSA-conjugated peptide fragments F1-F6 was determined by ELISA assay. Briefly, FAM19A5 fragment F1-F6 (diluted to 1 μg/mL in 50 mM carbonate buffer (Biosesang) or to 20 μg/mL for high concentration analysis) were used to coat the wells of 96-well immuno plates (Thermo Scientific) (100 μL/well) overnight at 4° C. and then subsequently washed twice in 1×PBS. The plates were then blocked with the blocking buffer (100 μL/well) for 1 hour at room temperature. During the 1-hour incubation, the relevant anti-FAM19A5 antibodies were diluted to 1 μg/mL (or 20 μg/mL for high concentration analysis) in the diluent buffer. Once the plates were washed (2× using 1×PBS), the diluted anti-FAM19A5 antibodies were added to the appropriate wells, and the plates were incubated at room temperature for 1 hour. The plates were subsequently washed for a total of five times using the washing buffer. Next, the ODP substrate (prepared by dissolving one ODP tablet (0-phenylenediamine Dihydrochloride, Thermo) into 9 mL of sterilized deionized water and 1 mL of 10× stable Peroxide Stable buffer (Theromo)) was added to each of the wells, and the color change reaction was allowed to occur for 10 minutes. This reaction was stopped by adding 100 μL of 2N H2SO4 (Daejung) to the wells. The absorption value of each of the wells was detected at 492 nm using a 96-well microplate reader (Molecular Device).

[2] = biological target: T2, FAM19A5 epitope fragment F3 conjugated to BSA (human, conjugated to BSA); assay: ELISA on peptide-BSA coated on the plate
T2 peptide: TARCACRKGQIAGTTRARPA
Method: as §1

[3] = biological target: T3, FAM19A5 epitope fragment F4 conjugated to BSA (human, conjugated to BSA); assay: ELISA on peptide-BSA coated on the plate
T3 peptide: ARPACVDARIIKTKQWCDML
Method: as §1

[4] = biological target: T4, FAM19A5 epitope fragment F5 conjugated to BSA (human, conjugated to BSA); assay: ELISA on peptide-BSA coated on the plate
T4 peptide: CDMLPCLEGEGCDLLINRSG
Method: as §1

[5] = biological target: T5, FAM19A5 epitope fragment F6 conjugated to BSA (human, conjugated to BSA); assay: ELISA on peptide-BSA coated on the plate
T5 peptide: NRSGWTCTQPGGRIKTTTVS
Method: as §1

[6] = biological target: T6, FAM19A5 epitope fragment F1 conjugated to BSA (human, also: conjugated to BSA); assay: ELISA on peptide-BSA coated on the plate
T6 peptide: QLAAGTCEIVTLDR
Method: as §1

[7] = biological target: T7, FAM19A5 mutant M1 (human); assay: ELISA with phage-displayed FAM19A5 mutants
T7 construct: Region EP1 is replaced with the FAM19A1-4 consensus; The fusion to the phage protein is not described
T7 chain: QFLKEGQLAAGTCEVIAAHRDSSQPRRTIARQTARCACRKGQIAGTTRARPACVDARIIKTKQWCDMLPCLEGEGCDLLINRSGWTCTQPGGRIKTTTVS

[8] = biological target: T8, FAM19A5 mutant M2 (human); assay: ELISA with phage-displayed FAM19A5 mutants
T8 construct: Expressed on phage; It has substitutions at amino acid residues 21-25 (EP2)
T8 chain: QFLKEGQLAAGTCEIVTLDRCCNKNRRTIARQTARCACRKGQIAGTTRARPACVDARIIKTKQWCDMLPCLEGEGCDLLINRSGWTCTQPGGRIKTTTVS

[9] = biological target: T9, FAM19A5 mutant M3 (human); assay: ELISA with phage-displayed FAM19A5 mutants
T9 construct: Expressed on phage; Region EP3 is replaced with the FAM19A1-4 consensus
T9 chain: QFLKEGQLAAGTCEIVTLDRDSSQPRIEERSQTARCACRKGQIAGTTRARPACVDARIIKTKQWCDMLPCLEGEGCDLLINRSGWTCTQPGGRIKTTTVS

[10] = biological target: T10, FAM19A5 mutant M4 (human); assay: ELISA with phage-displayed FAM19A5 mutants
T10 construct: Expressed on phage; Region EP4 is replaced with the FAM19A1-4 consensus
T10 chain: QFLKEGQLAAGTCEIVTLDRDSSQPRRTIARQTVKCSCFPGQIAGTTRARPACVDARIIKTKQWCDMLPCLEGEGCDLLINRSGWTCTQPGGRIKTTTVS

[11] = biological target: T11, FAM19A5 mutant M6 (human); assay: ELISA with phage-displayed FAM19A5 mutants
T11 construct: Expressed on phage; Region EP6 is replaced with the FAM19A1-4 consensus
T11 chain: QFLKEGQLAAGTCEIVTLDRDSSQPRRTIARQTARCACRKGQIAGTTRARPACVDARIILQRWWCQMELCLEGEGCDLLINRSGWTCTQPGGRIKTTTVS

[12] = biological target: T12, FAM19A5 mutant M7 (human); assay: ELISA with phage-displayed FAM19A5 mutants
T12 construct: Expressed on phage; Region EP7 is replaced with the FAM19A1-4 consensus
T12 chain: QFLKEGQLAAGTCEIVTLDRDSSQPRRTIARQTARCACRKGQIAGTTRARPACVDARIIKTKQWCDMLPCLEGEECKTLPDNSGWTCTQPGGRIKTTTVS

[13] = biological target: T13, FAM19A5 mutant M8 (human); assay: ELISA with phage-displayed FAM19A5 mutants
T13 construct: Expressed on phage; Region EP8 is replaced with the FAM19A1-4 consensus
T13 chain: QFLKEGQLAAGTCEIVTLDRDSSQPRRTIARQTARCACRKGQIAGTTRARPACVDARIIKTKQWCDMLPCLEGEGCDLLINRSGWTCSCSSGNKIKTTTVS

[14] = biological target: T1, FAM19A5 epitope fragment F2 conjugated …; assay: ELISA, antigen coated on the plate, antibody in solution, absorbance at 492 nm
Method: as §1

[15] = biological target: T2, FAM19A5 epitope fragment F3 conjugated …; assay: as above
Method: as §1

[16] = biological target: T3, FAM19A5 epitope fragment F4 conjugated …; assay: as above
Method: as §1

[17] = biological target: T4, FAM19A5 epitope fragment F5 conjugated …; assay: as above
Method: as §1

[18] = biological target: T5, FAM19A5 epitope fragment F6 conjugated …; assay: as above
Method: as §1

[19] = biological target: T6, FAM19A5 epitope fragment F1 conjugated …; assay: as above
Method: as §1

[20] = biological target: T1, FAM19A5 epitope fragment F2 conjugated …; assay: ELISA on coated BSA-conjugated peptide
Method: as §1, with “Next, the ODP substrate (prepared by dissolving one ODP tablet (0-phenylenediamine Dihydrochloride, Thermo) into 9 mL of sterilized deionized water and 1 mL of 10× stable Peroxide Stable buffer (Theromo)) was added to each of the wells, and the color change reaction was allowed to occur for 10 minutes. This reaction was stopped by adding 100 μL of 2N H2SO4 (Daejung) to the wells.” left out

B1: anti-FAM19A5 antibody 2-13 (antibody, V domains shown)
VH: AVTLDESGGGLQTPGGALSLVCKASGFTFSSHGMFWVRQTPGKGLEYVAEITNDGSGTNYGSAVKGRATISRDNGQSTVRLQLNNLRAEDTGTYFCARSTYECPGGFSCWGDTGQIDAWGHGTEVIVSS
VL: ALTQPSSVSANPGETVKITCSGGSYSYGWFQQKSPGSALVTVIYWDDERPSDIPSRFSGALSGSTNTLTITGVQADDEAVYFCGTEDISGTAGVFGAGTTLTVL
notes: Chicken-derived scFv clone; also called Anti-FAM19A5 ("2-13")
binding result [1]: no binding | binding result [2]: no binding | binding result [3]: no binding | binding result [4]: no binding | binding result [5]: no binding | binding result [6]: no binding | binding result [7]: binds | binding result [8]: binds | binding result [9]: binds | binding result [10]: no binding | binding result [11]: binds | binding result [12]: binds | binding result [13]: no binding | O.D. [14]: 0.06 | O.D. [15]: 0.06 | O.D. [16]: 0.05 | O.D. [17]: 0.05 | O.D. [18]: 0.06 | O.D. [19]: 0.06

B2: anti-FAM19A5 antibody 1-65 (antibody, V domains shown)
VH: AVTLDESGGGLQTPGGALSLVCKASGFTFSSYQMGWVRQAPGKGLEWVGVINKSGSDTSYGSAVKGRATISRDNGQSTVRLQLNNLRAEDTGTYFCAKGSASYITAATIDAWGHGTEVIVSS
VL: ALTQPSSVSANPGETVKITCSGGGSSGYGYGWYQQKSPSSAPLTVIYWNDKRPSDIPSRFSGSKSGSTHTLTITGVQAEDEAVYFCGNDDYSSDSGYVGVFGAGTTLTVL
binding result [1]: no binding | binding result [2]: no binding | binding result [3]: no binding | binding result [5]: no binding | binding result [6]: no binding | binding result [7]: binds | binding result [8]: binds | binding result [9]: binds | binding result [10]: binds | binding result [11]: no binding | binding result [12]: no binding | binding result [13]: no binding | O.D. [14]: 0.06 | O.D. [15]: 0.06 | O.D. [16]: 0.06 | O.D. [17]: 1.5 | O.D. [18]: 0.05 | O.D. [19]: 0.06

B3: anti-FAM19A5 antibody 3-2 (antibody, V domains shown)
VH: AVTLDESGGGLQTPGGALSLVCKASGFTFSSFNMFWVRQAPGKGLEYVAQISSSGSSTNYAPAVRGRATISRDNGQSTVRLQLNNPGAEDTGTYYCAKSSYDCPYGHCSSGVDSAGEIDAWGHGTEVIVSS
VL: ALTQPSSVSANPGETVKITCSGGGSYAGSYYYGWYQQKAPGSAPVTLIYESNKRPSDIPSRFSGSTSGSTATLTITGVQADDEAIYYCGSWDSSNGGIFGAGTTLTVL
notes: The text reports one result for both formats, so one molecule is written here; also called h3-2; m3-2
binding result [7]: binds | binding result [8]: no binding | binding result [9]: binds | binding result [10]: binds | binding result [11]: binds | binding result [12]: binds | binding result [13]: binds | O.D. [14]: 3.3

B4: anti-FAM19A5 antibody 1-28 (antibody, V domains shown)
VH: AVTLDESGGGLQTPGGALSLVCKASGFDFSDYGMGWVRQAPGKGLEWVAAIRSDGSNPSYGSAVKGRATISKDNGRSTVRLQLNNLRAEDTATYYCAKDGNGYCALDAYRSGGYSCGVYPGSIDAWGHGTEVIVSS
VL: ALTQPSSVSANLEGTVEITCSGSGYGYGWYQQKSPGSAPVTVIYQNDKRPSDIPSRFSGSKSGSTGTLTITGVQVEDEAVYYCGSEDSSTLAGIFGAGTTLTVL
notes: Chicken-derived scFv clone; also called Anti-FAM19A5 ("1-28")
binding result [20]: binds | binding result [7]: binds | binding result [8]: no binding | binding result [9]: binds | binding result [10]: binds | binding result [11]: binds | binding result [12]: binds | binding result [13]: binds
